A word on the stoichiometry N: it is a count of units in the complex or per binding partner.

T1: His6-Fy-1 (Tbck), subunit of the reconstituted FERRY complex (human, UniProt Q8TEA7 1-893)
T1 sequence (looked up): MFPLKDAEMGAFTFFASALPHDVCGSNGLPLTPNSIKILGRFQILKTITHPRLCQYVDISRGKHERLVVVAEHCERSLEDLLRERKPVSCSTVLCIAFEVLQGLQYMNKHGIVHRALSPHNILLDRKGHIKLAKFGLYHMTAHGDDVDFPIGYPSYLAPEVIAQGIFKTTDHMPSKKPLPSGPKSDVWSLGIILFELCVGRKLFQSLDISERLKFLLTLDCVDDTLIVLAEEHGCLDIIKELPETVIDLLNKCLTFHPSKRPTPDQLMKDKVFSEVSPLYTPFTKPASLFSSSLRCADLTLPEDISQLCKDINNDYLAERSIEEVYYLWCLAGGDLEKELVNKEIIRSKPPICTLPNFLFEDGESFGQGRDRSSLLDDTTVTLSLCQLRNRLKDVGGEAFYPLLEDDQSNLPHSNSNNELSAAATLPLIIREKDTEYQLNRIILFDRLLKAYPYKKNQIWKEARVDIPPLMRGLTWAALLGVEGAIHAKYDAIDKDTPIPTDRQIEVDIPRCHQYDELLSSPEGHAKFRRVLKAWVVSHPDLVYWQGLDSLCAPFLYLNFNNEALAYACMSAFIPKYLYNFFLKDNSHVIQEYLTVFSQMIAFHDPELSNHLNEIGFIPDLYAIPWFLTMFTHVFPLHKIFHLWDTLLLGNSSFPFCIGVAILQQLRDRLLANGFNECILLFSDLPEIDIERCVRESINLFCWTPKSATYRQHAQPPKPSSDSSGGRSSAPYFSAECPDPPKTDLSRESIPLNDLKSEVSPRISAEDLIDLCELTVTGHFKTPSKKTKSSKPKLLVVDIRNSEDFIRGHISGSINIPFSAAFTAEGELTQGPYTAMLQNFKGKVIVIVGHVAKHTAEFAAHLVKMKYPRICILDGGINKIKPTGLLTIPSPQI

B1: atp5f1b (atp5b) 3'UTR-50A (ssRNA)
RNA: GGGGGGGUCUUUGUCCUCUGUACUGUCUCUCUCCUUGCCCCUAACCCAAAAAGCUUCAUUUUUCUGUGUAGGCUGCACAAGAGCCUUGAUUGAAGAUAUAUUCUUUCUGAACAGUAUUUAAGGUUUCCAAUAAAAUGUACACCCCUCAGAAAAAAAAAAAAAAAAAAAAAAAAAAAAAAAAAAAAAAAAAAAAAAAAAAAAGCGGCCGC
B2: mrpl41 5'UTR (ssRNA)
RNA: GGGGCUCUUGCUGCGACGCAGCGGUCGGAAGCGGAGCAAGGUCGAGGCCGGGUUGGCGCCGGAGCCGGGGCCGCUUGGAGCUCGUGUGGGGUCUCCGGUCCAGGGCGCGGCGCGGCCGC
B3: His6-Fy-5 (Gatd1) (natural protein, human, UniProt Q8NB37 1-220, looked up)
chain: MASERLPNRPACLLVASGAAEGVSAQSFLHCFTMASTAFNLQVATPGGKAMEFVDVTESNARWVQDFRLKAYASPAKLESIDGARYHALLIPSCPGALTDLASSGSLARILQHFHSESKPICAVGHGVAALCCATNEDRSWVFDSYSLTGPSVCELVRAPGFARLPLVVEDFVKDSGACFSASEPDAVHVVLDRHLVTGQNASSTVPAVQNLLFLCGSRK
B4: His6-Fy-4 (Cryzl1) (natural protein, human, UniProt O95825 1-349, looked up)
chain: MKGLYFQQSSTDEEITFVFQEKEDLPVTEDNFVKLQVKACALSQINTKLLAEMKMKKDLFPVGREIAGIVLDVGSKVSFFQPDDEVVGILPLDSEDPGLCEVVRVHEHYLVHKPEKVTWTEAAGSIRDGVRAYTALHYLSHLSPGKSVLIMDGASAFGTIAIQLAHHRGAKVISTACSLEDKQCLERFRPPIARVIDVSNGKVHVAESCLEETGGLGVDIVLDAGVRLYSKDDEPAVKLQLLPHKHDIITLLGVGGHWVTTEENLQLDPPDSHCLFLKGATLAFLNDEVWNLSNVQQGKYLCILKDVMEKLSTGVFRPQLDEPIPLYEAKVSMEAVQKNQGRKKQVVQF
B5: Fy-2 (Ppp1r21), untagged subunit of the reconstituted FERRY complex (natural protein, human, UniProt Q6ZMI0 1-780, looked up)
chain: MASAELQGKYQKLAQEYSKLRAQNQVLKKGVVDEQANSAALKEQLKMKDQSLRKLQQEMDSLTFRNLQLAKRVELLQDELALSEPRGKKNKKSGESSSQLSQEQKSVFDEDLQKKIEENERLHIQFFEADEQHKHVEAELRSRLATLETEAAQHQAVVDGLTRKYMETIEKLQNDKAKLEVKSQTLEKEAKECRLRTEECQLQLKTLHEDLSGRLEESLSIINEKVPFNDTKYSQYNALNVPLHNRRHQLKMRDIAGQALAFVQDLVTALLNFHTYTEQRIQIFPVDSAIDTISPLNQKFSQYLHENASYVRPLEEGMLHLFESITEDTVTVLETTVKLKTFSEHLTSYICFLRKILPYQLKSLEEECESSLCTSALRARNLELSQDMKKMTAVFEKLQTYIALLALPSTEPDGLLRTNYSSVLTNVGAALHGFHDVMKDISKHYSQKAAIEHELPTATQKLITTNDCILSSVVALTNGAGKIASFFSNNLDYFIASLSYGPKAASGFISPLSAECMLQYKKKAAAYMKSLRKPLLESVPYEEALANRRILLSSTESREGLAQQVQQSLEKISKLEQEKEHWMLEAQLAKIKLEKENQRIADKLKNTGSAQLVGLAQENAAVSNTAGQDEATAKAVLEPIQSTSLIGTLTRTSDSEVPDVESREDLIKNHYMARIVELTSQLQLADSKSVHFYAECRALSKRLALAEKSKEALTEEMKLASQNISRLQDELTTTKRSYEDQLSMMSDHLCSMNETLSKQREEIDTLKMSSKGNSKKNKSR
B6: Fy-3 (C12orf4), untagged subunit of the recombinant FERRY and GST-FERRY complexes (natural protein, human, UniProt Q9NQ89 1-552, looked up)
chain: MKKNRERFCNREREFVYKFKVGSQCLELRVPLKFPVQENASHLHGRLMLLHSLPCFIEKDLKEALTQFIEEESLSDYDRDAEASLAAVKSGEVDLHQLASTWAKAYAETTLEHARPEEPSWDEDFADVYHDLIHSPASETLLNLEHNYFVSISELIGERDVELKKLRERQGIEMEKVMQELGKSLTDQDVNSLAAQHFESQQDLENKWSNELKQSTAIQKQEYQEWVIKLHQDLKNPNNSSLSEEIKVQPSQFRESVEAIGRIYEEQRKLEESFTIHLGAQLKTMHNLRLLRADMLDFCKHKRNHRSGVKLHRLQTALSLYSTSLCGLVLLVDNRINSYSGIKRDFATVCQECTDFHFPRIEEQLEVVQQVVLYARTQRRSKLKESLDSGNQNGGNDDKTKNAERNYLNVLPGEFYITRHSNLSEIHVAFHLCVDDHVKSGNITARDPAIMGLRNILKVCCTHDITTISIPLLLVHDMSEEMTIPWCLRRAELVFKCVKGFMMEMASWDGGISRTVQFLVPQSISEEMFYQLSNMLPQIFRVSSTLTLTSKH

The target in one data set is Fy-1 (TBCK);Fy-2 (PPP1R21);Fy-3 (C12orf4);Fy-4 (CRYZL1);Fy-5 (GATD1) (Homo sapiens;Homo sapiens;Homo …, UniProt Q8TEA7;Q6ZMI0;Q9NQ89;O95825;Q8NB37 1-893;1-780;1-552;1-349;1-220, ||||). Put plainly: EMSA. (In general: A gel shift assay detects complexes by their altered migration in electrophoresis.)
Regarding B1, the binding result is reported as “no binding”.

With B2, the binding result is “no binding”.

Another data set addresses T1, His6-Fy-1 (Tbck), subunit of the …. Put plainly: SEC.
For the molecule B3, the “stoichiometry N” value is 4.

Consider B4, for which the “stoichiometry N” value was 2.

Consider B5, for which the “stoichiometry N” value amounted to 2.

As for B6, the “stoichiometry N” value is 1.

The values are drawn from publication doi:10.1101/2021.06.20.449167 (bioRxiv, 2021).
